Data published in publication PMC10847126.

Key:
[1] = biological target: RGA5-HMA (labelled, MST) (rice) (UniProt F7J0N2); assay: MST; […]; 20 mM PBS, 150 mM NaCl, 0.05% Tween-20, pH 7.4; […]
[2] = biological target: RGA5-HMA5 (recombinant, MST and HDX-MS) (rice) (UniProt F7J0N2); assay: as above

| Substance | Kd [1] [µM] | Kd [2] [µM] |
| --- | --- | --- |
| AVR-Pia (recombinant, MST) (from UniProt B9WZW9) (natural protein; other documents disagree on this pair) | 35 | – |
| AVR-PikD (recombinant, MST and HDX-MS) (natural protein) | – | 12 |
